The source of these data is IntAct's records for PubMed 12374762.

The chains are these.
B1: Aryl-hydrocarbon-interacting protein-like 1 (Homo sapiens), Q9NZN9 (parent)
chain: MDAALLLNVEGVKKTILHGGTGELPNFITGSRVIFHFRTMKCDEERTVIDDSRQVGQPMHIIIGNMFKLEVWEILLTSMRVHEVAEFWCDTIHTGVYPILSRSLRQMAQGKDPTEWHVHTCGLANMFAYHTLGYEDLDELQKEPQPLVFVIELLQVDAPSDYQRETWNLSNHEKMKAVPVLHGEGNRLFKLGRYEEASSKYQEAIICLRNLQTKEKPWEVQWLKLEKMINTLILNYCQCLLKKEEYYEVLEHTSDILRHHPGIVKAYYVRARAHAEVWNEAEAKADLQKVLELEPSMQKAVRRELRLLENRMAEKQEEERLRCRNMLSQGATQPPAEPPTEPPAQSSTEPPAEPPTAPSAELSAGPPAEPATEPPPSPGHSLQH

Variants of B1 are the subject of the test. The following applies: with nub1_human NUB1, Q9Y5A7.
Chain of nub1_human NUB1, Q9Y5A7 (Q9Y5A7 whole entry): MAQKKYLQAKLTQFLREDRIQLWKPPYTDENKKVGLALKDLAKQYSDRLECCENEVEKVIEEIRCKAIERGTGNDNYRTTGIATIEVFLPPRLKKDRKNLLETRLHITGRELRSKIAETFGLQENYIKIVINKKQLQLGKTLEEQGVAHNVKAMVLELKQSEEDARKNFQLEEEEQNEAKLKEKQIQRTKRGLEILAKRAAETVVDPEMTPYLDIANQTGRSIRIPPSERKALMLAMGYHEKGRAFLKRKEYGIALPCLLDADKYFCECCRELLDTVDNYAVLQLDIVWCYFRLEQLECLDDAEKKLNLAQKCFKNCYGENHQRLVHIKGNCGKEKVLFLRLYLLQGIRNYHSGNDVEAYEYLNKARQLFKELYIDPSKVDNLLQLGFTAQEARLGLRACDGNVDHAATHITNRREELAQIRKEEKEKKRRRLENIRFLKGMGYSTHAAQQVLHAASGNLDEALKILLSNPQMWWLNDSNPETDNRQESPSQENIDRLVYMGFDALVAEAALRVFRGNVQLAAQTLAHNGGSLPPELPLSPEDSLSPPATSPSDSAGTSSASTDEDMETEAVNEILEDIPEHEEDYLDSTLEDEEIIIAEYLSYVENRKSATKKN
As to MDAALLLNVEGVKKTILHGGTGELPNFITGSRVIFHFRTMKCDEERTVIDDSRQVGQPMHIIIGNMFKLEVWEILLTSTRVHEVAEFWCDTIHTGVYPILSRSLRQMAQGKDPTEWHVHTCGLANMFAYHTLGYEDLDELQKEPQPLVFVIELLQVDAPSDYQRETWNLSNHEKMKAVPVLHGEGNRLFKLGRYEEASSKYQEAIICLRNLQTKEKPWEVQWLKLEKMINTLILNYCQCLLKKEEYYEVLEHTSDILRHHPGIVKAYYVRARAHAEVWNEAEAKADLQKVLELEPSMQKAVRRELRLLENRMAEKQEEERLRCRNMLSQGATQPPAEPPTEPPAQSSTEPPAEPPTAPSAELSAGPPAEPATEPPPSPGHSLQH [M79T], the “effect of a mutation on the interaction” value is on record as “decreasing interaction”. For the variant MDAALLLNVEGVKKTILHGGTGELPNFITGSRVIFHFRTMKCDEERTVIDDSRQVGQPMHIIIGNMFKLEVWEILLTSMRVHEVAEFWCDTIHTGVYPILSRSLRQMAQGKDPTEWHVHTCGLANMFAYHTLGYEDLDELQKEPQPLVFVIELLQVDAPSDYQRETWNLSNHEKMKAVPVLHGEGNRLFKLGRYEEASSKYQEAIICLRNLQTKEKPWEVQWLKLEKMINTLILNYCQCLLKKEEYYEVLEHTSDILRHHPSIVKAYYVRARAHAEVWNEAEAKADLQKVLELEPSMQKAVRRELRLLENRMAEKQEEERLRCRNMLSQGATQPPAEPPTEPPAQSSTEPPAEPPTAPSAELSAGPPAEPATEPPPSPGHSLQH [G262S], the “effect of a mutation on the interaction” value was “decreasing interaction”. Then MDAALLLNVEGVKKTILHGGTGELPNFITGSRVIFHFRTMKCDEERTVIDDSRQVGQPMHIIIGNMFKLEVWEILLTSMRVHEVAEFWCDTIHTGIYPILSRSLRQMAQGKDPTEWHVHTCGLANMFAYHTLGYEDLDELQKEPQPLVFVIELLQVDAPSDYQRETWNLSNHEKMKAVPVLHGEGNRLFKLGRYEEASSKYQEAIICLRNLQTKEKPWEVQWLKLEKMINTLILNYCQCLLKKEEYYEVLEHTSDILRHHPGIVKAYYVRARAHAEVWNEAEAKADLQKVLELEPSMQKAVRRELRLLENRMAEKQEEERLRCRNMLSQGATQPPAEPPTEPPAQSSTEPPAEPPTAPSAELSAGPPAEPATEPPPSPGHSLQH [V96I], with “decreasing interaction”. Then MDAALLLNVEGVKKTILHGGTGELPNFITGSRVIFHFRTMKCDEERTVIDDSRQVGQPMHIIIGNMFKLEVWEILLTSMRVHEVAEFWCDTIHTGVYPILSRSLRQMAQGKDPTEWHVHTCGLANMFAYHTLGYEDLDELQKEPQPLVFVIELLQVDAPSDYQRETWNLSNHEKMKAVPVLHGEGNRLFKLGRYEEASSKYQEAIICLRNLQTKEKPWEVQWLKLEKMINTLILNYCQCLLKKEEYYEVLEHTSDILRHHPGIVKAYYVRARAHAEVWNEAEAKADLQKVLELEPSMQKAVLRELRLLENRMAEKQEEERLRCRNMLSQGATQPPAEPPTEPPAQSSTEPPAEPPTAPSAELSAGPPAEPATEPPPSPGHSLQH [R302L], with “decreasing interaction”. Then MDAALLLNVEGVKKTILHGGTGELPNFITGSRVIFHFRTMKCDEERTVIDDSWQVGQPMHIIIGNMFKLEVWEILLTSMRVHEVAEFWCDTIHTGVYPILSRSLRQMAQGKDPTEWHVHTCGLANMFAYHTLGYEDLDELQKEPQPLVFVIELLQVDAPSDYQRETWNLSNHEKMKAVPVLHGEGNRLFKLGRYEEASSKYQEAIICLRNLQTKEKPWEVQWLKLEKMINTLILNYCQCLLKKEEYYEVLEHTSDILRHHPGIVKAYYVRARAHAEVWNEAEAKADLQKVLELEPSMQKAVRRELRLLENRMAEKQEEERLRCRNMLSQGATQPPAEPPTEPPAQSSTEPPAEPPTAPSAELSAGPPAEPATEPPPSPGHSLQH [R53W], with “decreasing interaction”.
